Each block holds one molecule with its values, some of them ahead of it.
Columns and labels:
DIAPH1 (Homo sapiens) = DIAPH1 (Homo sapiens) (UniProt O60610); experiment: BLI; conditions: cited from earlier work
GST-IQGAP1-DBR (human) = GST-IQGAP1-DBR (human) (UniProt P46940); experiment: BLI; Octet RED96; GST-tagged ligands on GST biosensors; analyte 0.5 nM to 5 μM; PBS, 0.002% Tween-20, 0.1 mg/ml BSA; 30 °C; one site-specific binding, saturation curve
MBP-CLIP170-NT [1] = molecular target: T1, MBP-CLIP170-NT (human); experiment: BLI; individual test 2
T1 chain: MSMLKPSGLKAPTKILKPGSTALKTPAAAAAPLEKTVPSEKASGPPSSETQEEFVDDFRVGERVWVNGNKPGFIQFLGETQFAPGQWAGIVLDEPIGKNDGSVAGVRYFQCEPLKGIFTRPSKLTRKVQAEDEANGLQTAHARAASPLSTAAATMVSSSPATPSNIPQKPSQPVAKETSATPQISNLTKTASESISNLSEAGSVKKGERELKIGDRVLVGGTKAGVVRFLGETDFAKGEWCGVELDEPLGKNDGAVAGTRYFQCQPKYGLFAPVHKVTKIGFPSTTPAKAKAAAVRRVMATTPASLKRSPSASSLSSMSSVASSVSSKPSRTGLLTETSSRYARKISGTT

MBP-CLIP170-NT [2] = molecular target: T1, MBP-CLIP170-NT; experiment: BLI; individual test 1
His6-DIAPH1-NT = molecular target: T2, His6-DIAPH1-NT (human, UniProt O60610 1-575); experiment: pull-down; 0.05 nmol GST-IQGAP1-DBR immobilised on GST beads, first partner equimolar 1 h, then second partner equimolar 1 h; 25 mM HEPES pH 7.5, 250 mM NaCl, 100 mM KCl, 0.5 mM beta-mercaptoethanol, 1 mM PMSF, 0.1% Triton X-100; 4 °C; anti-His6 and anti-MBP blots; conditions: both partners purified
T2 construct: human DIAPH1, N-terminal fragment, residues 1-575 of the 1272-residue protein; plasmid pET30a-DIAPH1-NT(1-575aa); Plasmid was a gift from J. Copeland; also called N-terminal fragment of DIAPH1; DIAPH1 N-terminal regulatory domains; source: E. coli BL21, purified (nickel-Sepharose)
T2 sequence (O60610 1-575): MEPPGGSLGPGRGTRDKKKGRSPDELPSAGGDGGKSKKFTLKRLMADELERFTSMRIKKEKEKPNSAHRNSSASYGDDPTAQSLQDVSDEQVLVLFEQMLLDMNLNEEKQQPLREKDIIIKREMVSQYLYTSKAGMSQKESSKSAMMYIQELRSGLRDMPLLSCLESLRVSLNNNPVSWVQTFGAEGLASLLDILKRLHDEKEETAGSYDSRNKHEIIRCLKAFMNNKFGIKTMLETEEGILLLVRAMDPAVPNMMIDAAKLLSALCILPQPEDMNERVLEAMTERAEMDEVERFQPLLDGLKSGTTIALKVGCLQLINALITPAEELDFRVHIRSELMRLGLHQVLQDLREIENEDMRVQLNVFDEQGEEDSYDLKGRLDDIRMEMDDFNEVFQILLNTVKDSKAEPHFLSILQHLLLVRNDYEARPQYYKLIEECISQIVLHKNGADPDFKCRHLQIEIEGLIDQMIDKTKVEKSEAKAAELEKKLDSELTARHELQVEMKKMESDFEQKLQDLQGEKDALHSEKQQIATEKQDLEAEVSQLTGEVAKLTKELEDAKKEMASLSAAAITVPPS

Chain of DIAPH1 (Homo sapiens) (O60610 whole entry): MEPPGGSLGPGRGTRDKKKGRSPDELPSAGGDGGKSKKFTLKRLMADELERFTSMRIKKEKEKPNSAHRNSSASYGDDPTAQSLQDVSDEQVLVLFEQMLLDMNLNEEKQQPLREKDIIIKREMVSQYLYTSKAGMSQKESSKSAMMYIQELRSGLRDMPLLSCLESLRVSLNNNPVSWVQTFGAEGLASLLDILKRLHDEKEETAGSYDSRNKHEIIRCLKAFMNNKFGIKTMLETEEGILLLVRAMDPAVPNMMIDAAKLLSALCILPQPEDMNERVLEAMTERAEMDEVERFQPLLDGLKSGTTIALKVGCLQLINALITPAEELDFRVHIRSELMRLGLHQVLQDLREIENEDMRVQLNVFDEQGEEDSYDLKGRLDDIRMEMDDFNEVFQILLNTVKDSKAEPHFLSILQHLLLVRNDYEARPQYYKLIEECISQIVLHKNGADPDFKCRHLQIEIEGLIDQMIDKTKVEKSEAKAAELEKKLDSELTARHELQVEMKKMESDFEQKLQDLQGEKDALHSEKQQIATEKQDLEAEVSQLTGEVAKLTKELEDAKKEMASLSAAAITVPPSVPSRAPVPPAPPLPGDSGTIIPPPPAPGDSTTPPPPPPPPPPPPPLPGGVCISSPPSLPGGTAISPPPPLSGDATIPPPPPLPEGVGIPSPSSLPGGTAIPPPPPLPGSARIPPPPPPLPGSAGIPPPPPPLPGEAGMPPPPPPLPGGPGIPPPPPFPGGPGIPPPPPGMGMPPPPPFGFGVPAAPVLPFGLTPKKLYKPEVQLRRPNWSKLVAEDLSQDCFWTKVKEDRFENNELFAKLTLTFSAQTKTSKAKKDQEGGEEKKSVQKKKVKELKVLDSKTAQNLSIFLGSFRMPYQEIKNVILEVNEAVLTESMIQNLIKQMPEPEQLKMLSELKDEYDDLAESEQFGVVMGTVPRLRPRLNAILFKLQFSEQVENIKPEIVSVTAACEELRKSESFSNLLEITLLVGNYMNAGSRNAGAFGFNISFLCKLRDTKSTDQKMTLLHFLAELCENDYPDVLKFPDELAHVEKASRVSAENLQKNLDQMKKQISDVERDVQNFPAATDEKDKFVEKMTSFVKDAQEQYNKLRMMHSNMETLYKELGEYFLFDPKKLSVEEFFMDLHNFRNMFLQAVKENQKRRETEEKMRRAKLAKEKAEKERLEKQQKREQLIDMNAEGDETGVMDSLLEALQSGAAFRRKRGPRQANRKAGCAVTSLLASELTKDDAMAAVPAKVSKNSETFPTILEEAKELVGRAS

Molecule: IQGAP1 (from UniProt P46940)
Kd (DIAPH1 (Homo sapiens)): 81.2 nM

Kd (GST-IQGAP1-DBR (human)): 20.5 nM
Molecule: MBP-CLIP170-NT (domain or fragment)

Kd (MBP-CLIP170-NT [1]): 15.6 nM
Kd (MBP-CLIP170-NT [2]): 24.1 nM
binding result (His6-DIAPH1-NT): binds
B1: GST-IQGAP1-DBR (domain or fragment, human, UniProt P46940 1500-1657, looked up)
chain: KAELVKLQQTYAALNSKATFYGEQVDYYKSYIKTCLDNLASKGKVSKKPREMKGKKSKKISLKYTAARLHEKGVLLEIEDLQVNQFKNVIFEISPTEEVGDFEVKAKFMGVQMETFMLHYQDLLQLQYEGVAVMKLFDRAKVNVNLLIFLLNKKFYGK
notes: cloned into pDEST15; also called IQGAP-DBR; source: E. coli BL21, purified (glutathione beads)
